Data published in patent US20230110354A1, “THERAPEUTIC AGENT DELIVERY SYSTEMS AND METHODS OF FORMING AND USES THEREOF” (The Regents of the University of Colorado, a Body Corporate, priority 2020, published 2023).
Counter-ions that a name gives are not always drawn.

Experiments:
[1] = In vitro protein release test from SRTG micelle system (ELISA); type: physicochemical; details: for loading efficiency of protein in the hydrogel / loaded protein released by day 1 (burst release): SRTG 5 wt% + micelle NPs; for loading efficiency of protein in the hydrogel: 500 ng of each protein, day 0 sample after 5 min; for loaded protein released by day 1 (burst release): PBS with 0.2% BSA, 37° C.; for sustained release rate: after day 0 / day 1 through 28 days
Method: Proton nuclear magnetic resonance (1H NMR) was completed with a Varian Inova 500 NMR spectrometer. 1H NMR was used to confirm the structure of PEG-PSHU-PEG. The PEG-PSHU-PEG samples to be analyzed were dissolved in 600 μL of DMSO-d6. Protein Release Test. […] Solutions were mixed and left to dissolve overnight at 4° C. […] Then, 1 mL of warm (37° C.) release solution (lx PBS with 0.2% BSA) was added to the vials. After 5 min, 1 mL of release solution was removed from each sample for the day 0 time point, and 1 mL of fresh warm release solution was added. Samples were then taken every 24 h and immediately placed in a −80° C. freezer for further analysis. Enzyme-linked immunosorbent assay (ELISA) was used to quantify the concentration of proteins in the release solution samples following the manufacturer's instructions (Peprotech, Rocky Hill, N.J.). ELISA color development was monitored with a BioTek Synergy 2 Multi-Mode Reader at 405 nm with wavelength correction set at 650 nm. The results of three replicates were averaged. The hydrogels were initially allowed to stabilize for 5 min at which a sample was taken to determine the loading efficiency of the proteins in the hydrogels (day 0).

NIH3T3 cells = details: 10 pg/mL, low serum or serum-free medium; cited from earlier work
[2] = package insert; cited from earlier work
[3] = Lidocaine release study, lidocaine-loaded nanoparticles in crosslinked gelatin hydrogel (UV-Vis 280 nm); type: physicochemical
Method: For the lidocaine release study, a coated tubing which comprises a dried 1 cm by 0.5 cm piece of gelatin-lidocaine (100 mg lidocaine in 0.5 ml gelatin, 1% GA) was used. The coated tubing was placed in a 7 ml glass scintillation vial for the release study. The release solution medium (1 ml of PBS) was added to the scintillation vials, and the sample was incubated at 37° C. 1 ml samples were taken daily, and the release solution was replenished. The day 0 sample was taken 5 minutes after adding the release solution to the vials to measure the amount of lidocaine not incorporated into the gels.
The amount of lidocaine released as an effect of different nanoparticle formulations and differing amounts of lidocaine was determined using a UV-Vis spectrophotometer (GENESYS 10S UV-Vis) at 280 nm wavelength and samples were performed in triplicate (n=3). As a control, the same gelatin samples were prepared without the addition of lidocaine to measure any change in absorbance readings from the gel itself.

[4] = Lidocaine release study, gelatin-lidocaine hydrogel (UV-Vis 280 nm); type: physicochemical
Method: The coated tubing was placed in a 7 ml glass scintillation vial for the release study.
The release solution medium (1 ml of PBS) was added to the scintillation vials, and the sample was incubated at 37° C. 1 ml samples were taken daily, and the release solution was replenished. The day 0 sample was taken 5 minutes after adding the release solution to the vials to measure the amount of lidocaine not incorporated into the gels. […] As a control, the same gelatin samples were prepared without the addition of lidocaine to measure any change in absorbance readings from the gel itself.

[5] = cited from earlier work

In the case of PDGF, the “loading efficiency of protein in the hydrogel” value [1] is reported as 99%, the “loaded protein released by day 1 (burst release)” value [1] is reported as “approximately 3%” and the sustained release rate ([1]; SRTG micelle system) is reported as 0.39 ng per day. The “duration of sustained release from the delivery system” value ([1]; in vitro, SRTG micelle system) was 28 days.

For “TGF-β1: transforming growth factor-β1, literature example”, the “effect on growth rate of NIH3T3 cells” value (NIH3T3 cells) is listed as “stimulated the growth rate of NIH3T3 cells”.

In the case of `CCN(CC)CC(=O)Nc1c(C)cccc1C` [lidocaine hydrochloride], the “maximum dose at one time” value [2] is given as no more than 300 mg and the maximum subcutaneous dose [2] is given as “about 4.5 mg/kg”.

With `CCN(CC)CC(=O)Nc1c(C)cccc1C` [lidocaine] the “duration of sustained release of lidocaine” value (“duration … of lidocaine” for short) ([3]; 20 mg and 10 mg NP groups loaded with 100 mg of lidocaine, in gelatin hydrogel, PBS, 37° C.) was 10 days, the “duration … of lidocaine” value ([3]; 50 mg lidocaine groups, NP formulations in gelatin hydrogel) was 11 days and the “period of continued stable lidocaine elution, post-sterilization” value ([3]; Example 6, chest tube coated with micelle-loaded crosslinked gelatin) was 3 to 7 days. For the same molecule, the “period of continued stable lidocaine elution, post-sterilization” value ([4]; Example 7, chest tube coated with lidocaine loaded crosslinked gelatin) was 3 to 7 days and the “duration … of lidocaine” value ([4]; various gelatin and glutaraldehyde concentrations, coated tubing method) was 10 days.

B1: IL-10: Recombinant Murine IL-10, anti-inflammatory cytokine; cited Kd is for human IL-10 (protein, UniProt P18893 19-178, looked up)
Interleukin-10: SRGQYSREDNNCTHFPVGQSHMLLELRTAFSQVKTFFQTKDQLDNILLTDSLMQDFKGYLGCQALSEMIQFYLVEVMPQAEKHGPEIKEHLNSLGEKLKTLRMRLRRCHRFLPCENKSKAVEQVKSDFNKLQDQGVYKAMNEFDIFINCIEAYMMIKMKS
With B1 the “loading efficiency of protein in the hydrogel” value [1] was 93%, the “loaded protein released by day 1 (burst release)” value [1] was “approximately 21%” and the sustained release rate ([1]; SRTG micelle system) was 0.24 ng per day. For the same molecule, the half-life in vivo [5] was “less than 5 h”.
